From publication PMC3597591

Molecular target: 14-3-3η (UniProt P68511)
Experiment: GST pull-down from cell lysate
Details: reference: lysate with phosphatase inhibitors (PhosStop); sites S2845

Substance: Bassoon Bsn28, 2715-3013 (from UniProt O88778) lysate treated with alkaline phosphatase
- binding against the reference: weaker
